Reference: US20230031980A1 (SHANGHAI NINTH PEOPLE S HOSPITAL SHANGHAI JIAO TONG …, published 2023)
One block for each binder: values may come before it.

B1: SAGE1 (Sarcoma antigen 1), full-length protein in cells (other)
chain: MQASPLQTSQPTPPEELHAAAYVFTNDGQQMRSDEVNLVATGHQSKKKHSRKSKRHSSSKRRKSMSSWLDKQEDAAVTHSICEERINNGQPVADNVLSTAPPWPDATIAHNIREERMENGQSRTDKVLSTAPPQLVHMAAAGIPSMSTRDLHSTVTHNIREERMENGQPQPDNVLSTGPTGLINMAATPIPAMSARDLYATVTHNVCEQKMENVQPAPDNVLLTLRPRRINMTDTGISPMSTRDPYATITYNVPEEKMEKGQPQPDNILSTASTGLINVAGAGTPAISTNGLYSTVPHNVCEEKMENDQPQPNNVLSTVQPVIIYLTATGIPGMNTRDQYATITHNVCEERVVNNQPLPSNALSTVLPGLAYLATADMPAMSTRDQHATIIHNLREEKKDNSQPTPDNVLSAVTPELINLAGAGIPPMSTRDQYATVNHHVHEARMENGQRKQDNVLSNVLSGLINMAGASIPAMSSRDLYATITHSVREEKMESGKPQTDKVISNDAPQLGHMAAGGIPSMSTKDLYATVTQNVHEERMENNQPQPSYDLSTVLPGLTYLTVAGIPAMSTRDQYATVTHNVHEEKIKNGQAASDNVFSTVPPAFINMAATGVSSMSTRDQYAAVTHNIREEKINNSQPAPGNILSTAPPWLRHMAAAGISSTITRDLYVTATHSVHEEKMTNGQQAPDNSLSTVPPGCINLSGAGISCRSTRDLYATVIHDIQEEEMENDQTPPDGFLSNSDSPELINMTGHCMPPNALDSFSHDFTSLSKDELLYKPDSNEFAVGTKNYSVSAGDPPVTVMSLVETVPNTPQISPAMAKKINDDIKYQLMKEVRRFGQNYERIFILLEEVQGSMKVKRQFVEFTIKEAARFKKVVLIQQLEKALKEIDSHCHLRKVKHMRKR
notes: Endogenous protein in HuTu 80, K562, U2OS and KYSE30 cells (IP-MS); also called endogenous SAGE1; ectopically expressed SAGE1

What was measured:
[1] = molecular target: T1, CBP (CRBP-binding protein) (UniProt Q92793 2-2442, limits assumed); experiment: IP of the endogenous SAGE1 complex with anti-SAGE1 antibody (HuTu 80 and other SAGE1-expressing cancer cell lines), MS
T1 construct: also called CREBBP
From the text: (§1) To gain mechanistic insight into SAGE1 function in tumorigenesis, we performed a proteomic analysis of the endogenous SAGE1 complex pulled down in HuTu 80 cells by an anti-SAGE1 antibody. The complex was resolved by SDS-PAGE, visualized by silver staining, and subjected to MS analysis (FIG. 6A and FIGS. 14A-14D). A number of proteins previously linked to transcriptional regulation were reproducibly identified as high-confidence SAGE1 interactors, including CBP (CRBP-binding protein), TLE (Groucho/Transducin-Like Enhancer of Split) proteins, INTS3 (a component of the Integrator complex) and INTS3-binding partners NABP (Nucleic Acid Binding Protein) and INIP (INTS3 and NABP interacting protein) (FIG. 6B). […] The interactions between SAGE1 and these proteins were further confirmed by co-immunoprecipitation (co-IP) analysis (FIG. 6C and FIG. 6D).
(§2) For IP, 1×10^7 cells were lysed in lysis buffer (20 mM Tris-HCl, 150 mM NaCl, 10% Glycerol, 0.5% TritonX-100, 1 mM EDTA, 1 mM EGTA, pH7.4) supplemented with protease inhibitor cocktail (Sigma-Aldrich, #B14001), incubated in 4° C. for 10 min and sonicated by Bioruptor Plus (Diagenode) (5-10% amplitude/power, ON 5 sec-OFF 5 sec) for 1 min. After centrifugation (14,000 rpm, 15 min, 4° C., 1 mg of supernatants were incubated with 5 μg of rabbit anti-SAGE1 polyclonal antibody (Novus Biologicals, #NBP1-84355, or Abcam, #ab233388) and rabbit anti- […]

[2] = molecular target: INTS3 (integrator complex subunit 3), endogenous full-length protein (human, UniProt Q68E01 2-1043); experiment: IP-MS with anti-INTS3 antibody in SAGE1-overexpressing 293T cells
Protocol: Given that SAGE1I3BD highly resembles INTS6I3BD, it is likely that they interact with INTS3CTD in a mutually exclusive manner. To test this idea, we mixed purified INTS3CTD-INTS6I3BD complex with GST-tagged SAGE1I3BD and conducted a GST-pull-down analysis.
For IP, 1×10^7 cells were lysed in lysis buffer (20 mM Tris-HCl, 150 mM NaCl, 10% Glycerol, 0.5% TritonX-100, 1 mM EDTA, 1 mM EGTA, pH7.4) supplemented with protease inhibitor cocktail (Sigma-Aldrich, #B14001), incubated in 4° C. for 10 min and sonicated by Bioruptor Plus (Diagenode) (5-10% amplitude/power, ON 5 sec-OFF 5 sec) for 1 min. After centrifugation (14,000 rpm, 15 min, 4° C., 1 mg of supernatants were incubated with 5 μg of rabbit anti-SAGE1 polyclonal antibody (Novus Biologicals, #NBP1-84355, or Abcam, #ab233388) and rabbit anti-
INTS3 polyclonal antibody (Novus Biologicals, #NBP1-19091) for 16 hours respectively. Next day, 20 μL of Protein G beads (Millipore, #LSKMAGG02) were added into each tube and incubated for 3 more hours. Then beads were harvested and washed for three times with lysis buffer and eluted by 0.2 M Glycine (pH 2.2).

[3] = molecular target: T2, INTS3CTD (C-terminal domain of INTS3, residues 572-978) (human, UniProt Q68E01 573-979); experiment: ITC
T2 construct: also called INTS3CTD dimer
Protocol: The equilibrium dissociation constant of the SAGE1I3BD-INTS3CTD interaction was determined using a MicroCal iTC200 calorimeter (Malvern). The binding enthalpy was measured at 16° C. in 25 mM Tris-HCl pH 8.0, 150 mM NaCl and 5 mM MgCl2. Two independent experiments were performed. ITC data were subsequently analyzed and fitted using Origin 7 software (OriginLab).
All statistical tests of experimental results were performed using the GraphPad Prism 7 unless noted. The statistical significance was calculated via unpaired two-tailed Student's t test. The dissociation constants (Kd) in ITC experiments were calculated using the Origin 7 software as mean±standard error from two independent experiments with a single site-specific binding model. The statistical analysis of in vivo experiments data was performed using nonparametric Mann-Whitney test. Results were represented as mean±standard deviation unless noted and p<0.05 was considered statistically significant.

[4] = molecular target: B1; experiment: IP of the endogenous SAGE1 complex with anti-SAGE1 antibody (HuTu 80 and other SAGE1-expressing cancer cell lines), MS
From the text: as §1, §2

Chain of INTS3 (integrator complex subunit 3), endogenous full-length protein (Q68E01 2-1043 limits assumed, one chain of several): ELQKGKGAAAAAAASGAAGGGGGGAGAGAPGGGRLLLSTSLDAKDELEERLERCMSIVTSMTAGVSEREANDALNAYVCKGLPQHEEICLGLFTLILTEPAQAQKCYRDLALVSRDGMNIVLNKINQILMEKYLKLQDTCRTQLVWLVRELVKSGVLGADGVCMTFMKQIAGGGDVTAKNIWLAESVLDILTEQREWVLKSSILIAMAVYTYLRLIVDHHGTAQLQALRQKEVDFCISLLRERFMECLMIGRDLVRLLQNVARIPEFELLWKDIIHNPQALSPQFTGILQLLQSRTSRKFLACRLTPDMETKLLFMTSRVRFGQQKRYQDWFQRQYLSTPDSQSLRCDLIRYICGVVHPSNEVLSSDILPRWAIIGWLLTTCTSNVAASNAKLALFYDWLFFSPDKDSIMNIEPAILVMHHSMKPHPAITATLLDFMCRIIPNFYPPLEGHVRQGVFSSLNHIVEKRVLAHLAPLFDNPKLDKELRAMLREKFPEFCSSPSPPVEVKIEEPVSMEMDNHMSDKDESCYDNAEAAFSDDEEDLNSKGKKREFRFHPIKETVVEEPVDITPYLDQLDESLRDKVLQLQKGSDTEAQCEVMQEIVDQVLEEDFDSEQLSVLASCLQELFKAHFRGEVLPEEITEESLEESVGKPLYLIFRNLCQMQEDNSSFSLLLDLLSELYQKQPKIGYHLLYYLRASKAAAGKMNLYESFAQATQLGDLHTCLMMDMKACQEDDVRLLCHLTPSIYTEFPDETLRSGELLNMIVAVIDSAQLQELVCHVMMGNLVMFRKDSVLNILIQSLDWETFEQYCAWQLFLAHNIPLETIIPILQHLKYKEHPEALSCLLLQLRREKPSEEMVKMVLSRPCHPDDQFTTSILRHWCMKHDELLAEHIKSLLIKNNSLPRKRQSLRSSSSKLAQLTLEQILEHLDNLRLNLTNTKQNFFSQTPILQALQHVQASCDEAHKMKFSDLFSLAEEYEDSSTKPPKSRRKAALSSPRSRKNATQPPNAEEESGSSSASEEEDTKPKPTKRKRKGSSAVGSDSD
T1 sequence (Q92793 2-2442 limits assumed): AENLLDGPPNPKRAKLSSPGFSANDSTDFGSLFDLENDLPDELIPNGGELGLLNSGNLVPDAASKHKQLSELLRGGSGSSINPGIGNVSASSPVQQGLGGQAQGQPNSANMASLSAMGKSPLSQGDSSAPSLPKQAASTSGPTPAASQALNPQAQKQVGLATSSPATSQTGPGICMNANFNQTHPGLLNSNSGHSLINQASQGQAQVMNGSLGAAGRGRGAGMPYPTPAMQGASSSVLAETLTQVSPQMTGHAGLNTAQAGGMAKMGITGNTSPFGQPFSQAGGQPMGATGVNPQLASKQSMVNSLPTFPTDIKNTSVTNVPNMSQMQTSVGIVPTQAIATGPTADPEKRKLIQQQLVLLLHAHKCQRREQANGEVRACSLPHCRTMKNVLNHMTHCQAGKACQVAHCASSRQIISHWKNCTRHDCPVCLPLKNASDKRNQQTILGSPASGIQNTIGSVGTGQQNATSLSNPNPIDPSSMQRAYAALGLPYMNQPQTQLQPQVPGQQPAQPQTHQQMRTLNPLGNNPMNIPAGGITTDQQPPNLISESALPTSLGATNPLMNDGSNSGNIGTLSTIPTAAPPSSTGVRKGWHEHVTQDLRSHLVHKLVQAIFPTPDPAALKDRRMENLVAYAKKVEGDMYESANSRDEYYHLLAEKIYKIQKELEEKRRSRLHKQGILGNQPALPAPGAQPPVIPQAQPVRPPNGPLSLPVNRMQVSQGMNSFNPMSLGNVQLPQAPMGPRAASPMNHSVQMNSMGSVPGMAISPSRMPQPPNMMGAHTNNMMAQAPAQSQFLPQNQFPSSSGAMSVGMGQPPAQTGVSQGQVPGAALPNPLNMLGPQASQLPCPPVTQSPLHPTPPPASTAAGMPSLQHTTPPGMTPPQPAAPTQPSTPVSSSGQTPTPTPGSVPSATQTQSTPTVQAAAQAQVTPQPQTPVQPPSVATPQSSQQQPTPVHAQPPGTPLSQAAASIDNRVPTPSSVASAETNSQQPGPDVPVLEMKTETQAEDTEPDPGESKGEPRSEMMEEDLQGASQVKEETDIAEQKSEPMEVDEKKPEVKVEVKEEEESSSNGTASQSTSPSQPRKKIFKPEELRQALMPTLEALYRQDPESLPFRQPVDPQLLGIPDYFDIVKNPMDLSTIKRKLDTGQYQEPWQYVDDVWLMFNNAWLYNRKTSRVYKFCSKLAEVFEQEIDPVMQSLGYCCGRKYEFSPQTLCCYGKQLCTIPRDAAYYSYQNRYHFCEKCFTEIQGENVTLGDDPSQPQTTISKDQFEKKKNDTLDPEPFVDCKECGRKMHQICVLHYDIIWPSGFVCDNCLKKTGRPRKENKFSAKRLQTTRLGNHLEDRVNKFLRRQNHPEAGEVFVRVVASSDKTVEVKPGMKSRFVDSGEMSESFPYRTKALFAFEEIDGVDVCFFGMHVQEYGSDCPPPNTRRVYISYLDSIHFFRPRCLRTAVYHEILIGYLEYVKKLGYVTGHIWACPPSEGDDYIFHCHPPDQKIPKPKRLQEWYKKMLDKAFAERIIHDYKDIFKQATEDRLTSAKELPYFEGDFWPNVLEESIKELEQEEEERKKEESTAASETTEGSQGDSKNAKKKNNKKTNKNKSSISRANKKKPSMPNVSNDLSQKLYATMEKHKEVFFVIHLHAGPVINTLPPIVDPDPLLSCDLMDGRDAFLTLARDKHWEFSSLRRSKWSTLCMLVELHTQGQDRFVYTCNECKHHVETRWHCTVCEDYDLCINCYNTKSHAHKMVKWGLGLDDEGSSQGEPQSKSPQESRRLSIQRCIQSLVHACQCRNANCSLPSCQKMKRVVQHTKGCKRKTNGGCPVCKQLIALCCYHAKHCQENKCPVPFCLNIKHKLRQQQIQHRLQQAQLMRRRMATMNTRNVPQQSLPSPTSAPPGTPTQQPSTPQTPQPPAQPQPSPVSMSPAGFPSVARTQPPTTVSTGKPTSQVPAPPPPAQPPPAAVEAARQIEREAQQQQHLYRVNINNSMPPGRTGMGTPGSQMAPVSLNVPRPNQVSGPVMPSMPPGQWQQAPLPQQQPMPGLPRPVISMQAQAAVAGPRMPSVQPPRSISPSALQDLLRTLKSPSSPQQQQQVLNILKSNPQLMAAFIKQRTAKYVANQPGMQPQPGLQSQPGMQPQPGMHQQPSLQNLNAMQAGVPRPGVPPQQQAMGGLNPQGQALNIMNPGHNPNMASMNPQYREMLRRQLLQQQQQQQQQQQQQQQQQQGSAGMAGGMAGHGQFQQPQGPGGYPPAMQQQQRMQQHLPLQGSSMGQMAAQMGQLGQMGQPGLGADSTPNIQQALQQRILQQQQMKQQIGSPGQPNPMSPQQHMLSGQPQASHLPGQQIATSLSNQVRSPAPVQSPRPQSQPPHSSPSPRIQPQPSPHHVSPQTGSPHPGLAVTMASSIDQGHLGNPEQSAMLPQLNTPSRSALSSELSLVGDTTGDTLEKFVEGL

Binder: B1
binding result [1]: binds
binding result [2]: binds

binding result [3]: no binding
B2: mutant SAGE1I3BD (other)
chain: AMAKKINDDIKYQLAKEVRRAGANYERIFILLEEVQGSMKVKRQFVEFTIKEAAAAAKVVLIQQLEKALKEIDSHCHLRKVKHMRKR
notes: also called mutant SAGE1I3BD (alanine substitutions of six key interface residues)

binding result [4]: binds
B3: INIP (INTS3 and NABP interacting protein) (other, UniProt Q9NRY2 2-104, looked up)
chain: AANSSGQGFQNKNRVAILAELDKEKRKLLMQNQSSTNHPGASIALSRPSLNKDFRDHAEQQHIAAQQKAALQHAHAHSSGYFITQDSAFGNLILPVLPRLDPE
